Measured values published in publication PMC4919659 (2016).

B1: EGFP-RASSF5C (wild type) [not stated] / myc-MST1 K59R [not stated] (parent complex)
chain 1: MTVDSSMSSGYCSLDEELEDCFFTAKTTFFRNAQSKHLSKNVCKPVEETQRPPTLQEIKQKIDSYNTREKNCLGMKLSEDGTYTGFIKVHLKLRRPVTVPAGIRPQSIYDAIKEVNLAATTDKRTSFYLPLDAIKQLHISSTTTVSEVIQGLLKKFMVVDNPQKFALFKRIHKDGQVLFQKLSIADRPLYLRLLAGPDTEVLSFVLKENETGEVEWDAFSIPELQNFLTILEKEEQDKIQQVQKKYDKFRQKLEEALRESQGKPG
chain 2: METVQLRNPPRRQLKKLDEDSLTKQPEEVFDVLEKLGEGSYGSVYKAIHKETGQIVAIRQVPVESDLQEIIKEISIMQQCDSPHVVKYYGSYFKNTDLWIVMEYCGAGSVSDIIRLRNKTLTEDEIATILQSTLKGLEYLHFMRKIHRDIKAGNILLNTEGHAKLADFGVAGQLTDTMAKRNTVIGTPFWMAPEVIQEIGYNCVADIWSLGITAIEMAEGKPPYADIHPMRAIFMIPTNPPPTFRKPELWSDNFTDFVKQCLVKSPEQRATATQLLQHPFVRSAKGVSILRDLINEAMDVKLKRQESQQREVDQDDEENSEEDEMDSGTMVRAVGDEMGTVRVASTMTDGANTMIEHDDTLPSQLGTMVINAEDEEEEGTMKRRDETMQPAKPSFLEYFEQKEKENQINSFGKSVPGPLKNSSDWKIPQDGDYEFLKSWTVEDLQKRLLALDPMMEQEIEEIRQKYQSKRQPILDAIEAKKRRQQNF
B2: EGFP-RASSF1 (wild type) [not stated] / myc-MST1 K59R [not stated] (parent complex)
chain 1: MSGEPELIELRELAPAGRAGKGRTRLERANALRIARGTACNPTRQLVPGRGHRFQPAGPATHTWCDLCGDFIWGVVRKGLQCAHCKFTCHYRCRALVCLDCCGPRDLGWEPAVERDTNVDEPVEWETPDLSQAEIEQKIKEYNAQINSNLFMSLNKDGSYTGFIKVQLKLVRPVSVPSSKKPPSLQDARRGPGRGTSVRRRTSFYLPKDAVKHLHVLSRTRAREVIEALLRKFLVVDDPRKFALFERAERHGQVYLRKLLDDEQPLRLRLLAGPSDKALSFVLKENDSGEVNWDAFSMPELHNFLRILQREEEEHLRQILQKYSYCRQKIQEALHACPLG
chain 2: B1 chain 2
B3: EGFP-RASSF1 (wild type) [not stated] / mCherry-SARAH_(MST1) [not stated] (parent complex)
chain 1: B2 chain 1
chain 2: DYEFLKSWTVEDLQKRLLALDPMMEQEIEEIRQKYQSKRQPILDAIEAKKRRQQNF
B4: EGFP-RASSF5C (wild type) [not stated] / mCherry-SARAH_(MST1) [not stated] (parent complex)
chain 1: B1 chain 1
chain 2: B3 chain 2

Variants of: B1
Assay: co-immunoprecipitation (IP anti-myc, IB anti-GFP), band quantification; n = 3; parent: 1.02; read off a plot

| ratio to parent | Variant |
| --- | --- |
| ~0.98 | chain 1 L224P |
| ~0.9 | chain 1 L228P |
| ~0.85 | chain 1 L231P |

Variants of: B2
Assay: co-immunoprecipitation (IP anti-myc, IB anti-GFP), band quantification; n = 3; parent: 1.05; read off a plot

| ratio to parent | Variant |
| --- | --- |
| ~0.32 | chain 1 L301P |
| ~0.07 | chain 1 L305P |
| ~0.13 | chain 1 L308P |

Variants of: B3
Assay: FRET-FLIM in cells (EGFP donor lifetime, monoexponential fit, wide-field imaging); co-expressed with mCherry-SARAH(MST1); median of segmented cells; parent: 2.25e+03; read off a plot

| response | Variant |
| --- | --- |
| ~2490 ps | chain 1 L305P |
| ~2510 ps | chain 1 L301P |
| ~2500 ps | chain 1 L308P |

Variants of: B4
Assay: FRET-FLIM in cells (EGFP donor lifetime, monoexponential fit, wide-field imaging); co-expressed with mCherry-SARAH(MST1); median of segmented cells; parent: 2.27e+03; read off a plot

| response | Variant |
| --- | --- |
| ~2430 ps | chain 1 L231P |
| ~2490 ps | chain 1 L228P |
| ~2380 ps | chain 1 L224P |
